Measurements published in US20180258181A1.
Substitutions are numbered along the chain they refer to.

B1: MOR06657 IgG (antibody, V domains shown)
VH: QVQLVQSGAEVKKPGSSVKVSCKASGGTFSSYYFSWVRQAPGQGLEWMGGIIPKFGSANYAQKFQGRVTITADESTSTAYMELSSLRSEDTAVYYCARRTSMDYWGQGTLVTVSS
VL: DIALTQPASVSGSPGQSITISCTGTSSDVGGYNYVSWYQQHPGKAPKLMIYSVSKRPSGVSNRFSGSKSGNTASLTISGLQAEDEADYYCATWDHSQMGKVFGGGTKLTVLG
B2: MOR06626 IgG (antibody, V domains shown)
VH: QVQLVQSGAEVKKPGASVKVSCKASGYTFTGNYINWVRQAPGQGLEWMGIINPTKGWTLYAQKFQGRVTMTRDTSISTAYMELSSLRSEDTAVYYCARWHHGTWIFDYWGQGTLVTVSS
VL: DIVLTQPPSVSGAPGQRVTISCSGSSSNIGSNYVSWYQQLPGTAPKLLIYNDNQRPSGVPDRFSGSKSGTSASLAITGLQSEDEADYYCSTYDRRTFSVFGGGTKLTVLG
B3: MOR06638 IgG (antibody, V domains shown)
VH: B2 VH with T54H, K55G, W57D, L59K
VL: DIVLTQPPSVSGAPGQRVTISCSGSSSNIGSNYVSWYQQLPGTAPKLLIYNDNQRPSGVPDRFSGSKSGTSASLAITGLQSEDEADYYCSSWDRADGSYVFGGGTKLTVLG
B4: MOR06631 IgG (antibody, V domains shown)
VH: QVQLVQSGAEVKKPGESLKISCKGSGYSFTNYWIGWVRQMPGKGLEWMGFIWPVDSWTQYSPSFQGQVTISADKSISTAYLQWSSLKASDTAMYYCARYGHGMYGGALDVWGQGTLVTVSS
VL: DIVLTQSPATLSLSPGERATLSCRASQSVRSSRLAWYQQKPGQAPRLLIYGASKRATGVPARFSGSGSGTDFTLTISSLEPEDFATYYCQQYYDFPPTFGQGTKVEIKR
B5: MOR07111 IgG (antibody, V domains shown)
VH: B4 VH with F50V, W52M, V54S, W57Y, Q59R
VL: B4 VL with T86V, Y92F, D94S, F95K, P97I
B6: MOR06669 IgG (antibody, V domains shown)
VH: B4 VH with F50I, V54I, W57F
VL: B4 VL

The binders below were run against mesothelin on OVCAR-3 cells (UniProt Q13421) (assay: FACS titration, IgG on OVCAR-3 cells).

| Binder | EC50 [nM] |
| --- | --- |
| B1 | 0.53 |
| B2 | 9.68 |

Each binder was assayed against mesothelin on OVCAR-3 cells (UniProt Q13421) (assay: FACS titration, EC50 on OVCAR-3 against EC50 on NCI-H226).

| Binder | x-fold different EC50 on OVCAR-3 vs. NCI-H226 [fold] |
| --- | --- |
| B1 | 14 |
| B2 | 22 |
| B3 | 22.1 |
| B4 | 0.5 |
| B5 | 1.7 |
| B6 | 3.4 |
